The target of assay [1] is complement factor H (purified CFH) (UniProt P08603). Put plainly: flow cytometry on cells. On the technique in general: Flow cytometry measures light scatter and fluorescence of single cells or particles in a stream.
Assay [2] deals with MDA-modified low density lipoprotein. In words: ELISA.
In assay [3] the target is MAA-modified bovine serum albumin (bovine) (UniProt P02769). Put plainly: ELISA. A general note: An ELISA detects its analyte on a solid surface through an enzyme-linked reagent.

In turn, “MAA-modified bovine serum albumin (from UniProt P02769 25-607)” returned a percent competition of the binding of CFH to apoptotic blebs in assay [1] of more than 60%.
On to “CFH variant H402 (from UniProt P08603 19-1231) (natural protein)”, for which the reduction of binding against plasma homozygous for the Y402 allele in assay [2] was 52%.
The Kd is the concentration at which binding is half-saturated. In assay [3], “complement factor H (purified CFH) (from UniProt P08603 19-1231) (natural protein)” gave a dissociation constant Kd of 64 nM.

The record behind these values is article PMC4826616.
